According to patent US20260176319A1 (KALLYOPE, published 2026):
Starred links: 1 amine or outer side, 2 acyl side, 3 side chain; linkers in the order of their positions; H or OH if unused. Non-standard residues stand in square brackets, D forms with d. Primed or numbered codes have the meaning given here. *: point of attachment. Trp(7-Me) = Cc1cccc2c(C[C@H](N)C(=O)O)c[nH]c12; C20 diacid = O=C(O)CCCCCCCCCCCCCCCCCCC(=O)*; d(γGlu) = O=C(O)[C@@H](CCC(=O)[*:2])N[*:1]; αMeW = C[C@](N)(Cc1c[nH]c2ccccc12)C(=O)O; γGlu = O=C(O)[C@H](CCC(=O)[*:2])N[*:1]; NMeH = CN[C@@H](Cc1c[nH]cn1)C(=O)O; Palmitoyl = CCCCCCCCCCCCCCCC(=O)*; Hyp = O=C(O)[C@@H]1C[C@@H](O)CN1; 3Pal = N[C@@H](Cc1cccnc1)C(=O)O; Met(O) = CS(=O)CC[C@H](N)C(=O)O; Nle = CCCC[C@H](N)C(=O)O; PEG5′ = not defined here; ACBA = not defined here; ACPA = not defined here; ACPC = not defined here; AEEA = NCCOCCOCC(=O)O; Aib = CC(C)(N)C(=O)O; βAla = NCCC(=O)O; Sar = CNCC(=O)O

Target: human GRP receptor (human, UniProt P30550 1-384)
Assay: cell-based or functional assay

human GRP receptor, sequence (P30550 whole entry): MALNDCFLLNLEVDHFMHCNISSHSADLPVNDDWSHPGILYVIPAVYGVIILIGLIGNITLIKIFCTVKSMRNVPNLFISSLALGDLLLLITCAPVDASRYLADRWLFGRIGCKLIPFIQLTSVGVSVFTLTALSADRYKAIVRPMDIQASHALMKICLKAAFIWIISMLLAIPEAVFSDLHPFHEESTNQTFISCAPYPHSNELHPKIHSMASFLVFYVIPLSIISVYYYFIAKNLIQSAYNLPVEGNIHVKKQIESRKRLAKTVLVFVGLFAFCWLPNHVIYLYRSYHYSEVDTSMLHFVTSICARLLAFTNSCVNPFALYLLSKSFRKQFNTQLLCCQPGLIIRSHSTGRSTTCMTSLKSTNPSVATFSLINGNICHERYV

Row | hIP1 GRPR EC50 [nM] | Binder
1 | 63.8 | {C20 diacid}-[γGlu][AEEA][AEEA]GQHWAV[βAla]HL[Met(O)]-NH2 (SMILES CC(C)C[C@H](NC(=O)[C@H](Cc1c[nH]cn1)NC(=O)CCNC(=O)[C@@H](NC(=O)[C@H](C)NC(=O)[C@H](Cc1c[nH]c2ccccc12)NC(=O)[C@H](Cc1c[nH]cn1)NC(=O)[C@H](CCC(N)=O)NC(=O)CNC(=O)COCCOCCNC(=O)COCCOCCNC(=O)CC[C@H](NC(=O)CCCCCCCCCCCCCCCCCCC(=O)O)C(=O)O)C(C)C)C(=O)N[C@@H](CCS(C)=O)C(N)=O) [Peptide 276]
2 | 6.9 | Palmitoyl-[d(γGlu)][AEEA][AEEA]GNHWAV[Aib]HL[Nle]-NH2 (SMILES CCCCCCCCCCCCCCCC(=O)N[C@H](CCC(=O)NCCOCCOCC(=O)NCCOCCOCC(=O)NCC(=O)N[C@@H](CC(N)=O)C(=O)N[C@@H](Cc1c[nH]cn1)C(=O)N[C@@H](Cc1c[nH]c2ccccc12)C(=O)N[C@@H](C)C(=O)N[C@H](C(=O)NC(C)(C)C(=O)N[C@@H](Cc1c[nH]cn1)C(=O)N[C@@H](CC(C)C)C(=O)N[C@@H](CCCC)C(N)=O)C(C)C)C(=O)O) [Peptide 1]
3 | 10.8 | {C20 diacid}-[γGlu][γGlu][AEEA][AEEA]GDH[Trp(7-Me)]AV[BABA][NMeH]L[Nle]-NH2 [Peptide 278]
4 | 11 | {C20 diacid}-[γGlu][AEEA][AEEA]GEGEHWAV[βAla]HL[Nle]-NH2 (SMILES CCCC[C@H](NC(=O)[C@H](CC(C)C)NC(=O)[C@H](Cc1c[nH]cn1)NC(=O)CCNC(=O)[C@@H](NC(=O)[C@H](C)NC(=O)[C@H](Cc1c[nH]c2ccccc12)NC(=O)[C@H](Cc1c[nH]cn1)NC(=O)[C@H](CCC(=O)O)NC(=O)CNC(=O)[C@H](CCC(=O)O)NC(=O)CNC(=O)COCCOCCNC(=O)COCCOCCNC(=O)CC[C@H](NC(=O)CCCCCCCCCCCCCCCCCCC(=O)O)C(=O)O)C(C)C)C(N)=O) [Peptide 266]
5 | 3.8 | {C20 diacid}-[γGlu][γGlu][AEEA][AEEA]GQH[Trp(7-Me)]AV[BABA][NMeH]L[Nle]-NH2 [Peptide 270]
6 | > 1000 | Palmitoyl-[d(γGlu)][AEEA][AEEA]GNH[Trp(7-Me)][Aib]V[dA][3Pal]L[Nle][Sar]-NH2 (SMILES CCCCCCCCCCCCCCCC(=O)N[C@H](CCC(=O)NCCOCCOCC(=O)NCCOCCOCC(=O)NCC(=O)N[C@@H](CC(N)=O)C(=O)N[C@@H](Cc1c[nH]cn1)C(=O)N[C@@H](Cc1c[nH]c2c(C)cccc12)C(=O)NC(C)(C)C(=O)N[C@H](C(=O)N[C@H](C)C(=O)N[C@@H](Cc1cccnc1)C(=O)N[C@@H](CC(C)C)C(=O)N[C@@H](CCCC)C(=O)N(C)CC(N)=O)C(C)C)C(=O)O) [Peptide 20]
7 | 5.8 | Palmitoyl-[d(γGlu)][AEEA][AEEA]GEHWAV[dA]HL[Nle]-NH2 (SMILES CCCCCCCCCCCCCCCC(=O)N[C@H](CCC(=O)NCCOCCOCC(=O)NCCOCCOCC(=O)NCC(=O)N[C@@H](CCC(=O)O)C(=O)N[C@@H](Cc1c[nH]cn1)C(=O)N[C@@H](Cc1c[nH]c2ccccc12)C(=O)N[C@@H](C)C(=O)N[C@H](C(=O)N[C@H](C)C(=O)N[C@@H](Cc1c[nH]cn1)C(=O)N[C@@H](CC(C)C)C(=O)N[C@@H](CCCC)C(N)=O)C(C)C)C(=O)O) [Peptide 16]
8 | 4.9 | {C20 diacid}-[γGlu][γGlu][AEEA][AEEA]GNH[αMeW]AV[βAla]HL[Nle]-NH2 (SMILES CCCC[C@H](NC(=O)[C@H](CC(C)C)NC(=O)[C@H](Cc1c[nH]cn1)NC(=O)CCNC(=O)[C@@H](NC(=O)[C@H](C)NC(=O)[C@](C)(Cc1c[nH]c2ccccc12)NC(=O)[C@H](Cc1c[nH]cn1)NC(=O)[C@H](CC(N)=O)NC(=O)CNC(=O)COCCOCCNC(=O)COCCOCCNC(=O)CC[C@H](NC(=O)CC[C@H](NC(=O)CCCCCCCCCCCCCCCCCCC(=O)O)C(=O)O)C(=O)O)C(C)C)C(N)=O) [Peptide 274]
9 | 4.3 | {C20 diacid}-[γGlu][AEEA][AEEA]PQHWAV[βAla]HL[Nle]-NH2 (SMILES CCCC[C@H](NC(=O)[C@H](CC(C)C)NC(=O)[C@H](Cc1c[nH]cn1)NC(=O)CCNC(=O)[C@@H](NC(=O)[C@H](C)NC(=O)[C@H](Cc1c[nH]c2ccccc12)NC(=O)[C@H](Cc1c[nH]cn1)NC(=O)[C@H](CCC(N)=O)NC(=O)[C@@H]1CCCN1C(=O)COCCOCCNC(=O)COCCOCCNC(=O)CC[C@H](NC(=O)CCCCCCCCCCCCCCCCCCC(=O)O)C(=O)O)C(C)C)C(N)=O) [Peptide 268]
10 | 6 | {C20 diacid}-[γGlu][γGlu][AEEA][AEEA]GQHWAV[ACPA]HL[Nle]-NH2 (reading uncertain) [Peptide 272]
11 | 12.3 | {C20 diacid}-[γGlu]E[AEEA][AEEA]GQHWAV[ACBA]HL[Nle]-NH2 (reading uncertain) [Peptide 273]
12 | 12.3 | {C20 diacid}-[γGlu][γGlu][PEG5′]GEH[Trp(7-Me)]AV[BABA]HL[Nle]-NH2 [Peptide 275]
13 | 13.1 | {C20 diacid}-[γGlu][γGlu][AEEA][AEEA]SEH[Trp(7-Me)]AV[BABA][NMeH]L[Nle]-NH2 [Peptide 277]
14 | 120 | Palmitoyl-[d(γGlu)]GNHWAV[Aib]HL[Nle]-NH2 (SMILES CCCCCCCCCCCCCCCC(=O)N[C@H](CCC(=O)NCC(=O)N[C@@H](CC(N)=O)C(=O)N[C@@H](Cc1c[nH]cn1)C(=O)N[C@@H](Cc1c[nH]c2ccccc12)C(=O)N[C@@H](C)C(=O)N[C@H](C(=O)NC(C)(C)C(=O)N[C@@H](Cc1c[nH]cn1)C(=O)N[C@@H](CC(C)C)C(=O)N[C@@H](CCCC)C(N)=O)C(C)C)C(=O)O) [Peptide 21]
15 | ~1000 | Palmitoyl-[d(γGlu)][AEEA][AEEA]GE[3Pal][Trp(7-Me)][Aib]V[dA][3Pal]L[Nle][Sar]-NH2 (SMILES CCCCCCCCCCCCCCCC(=O)N[C@H](CCC(=O)NCCOCCOCC(=O)NCCOCCOCC(=O)NCC(=O)N[C@@H](CCC(=O)O)C(=O)N[C@@H](Cc1cccnc1)C(=O)N[C@@H](Cc1c[nH]c2c(C)cccc12)C(=O)NC(C)(C)C(=O)N[C@H](C(=O)N[C@H](C)C(=O)N[C@@H](Cc1cccnc1)C(=O)N[C@@H](CC(C)C)C(=O)N[C@@H](CCCC)C(=O)N(C)CC(N)=O)C(C)C)C(=O)O) [Peptide 18]
16 | 7.4 | {C20 diacid}-[γGlu][AEEA][AEEA]GQHWAV[βAla][NMeH]L[Nle]-NH2 (SMILES CCCC[C@H](NC(=O)[C@H](CC(C)C)NC(=O)[C@H](Cc1c[nH]cn1)N(C)C(=O)CCNC(=O)[C@@H](NC(=O)[C@H](C)NC(=O)[C@H](Cc1c[nH]c2ccccc12)NC(=O)[C@H](Cc1c[nH]cn1)NC(=O)[C@H](CCC(N)=O)NC(=O)CNC(=O)COCCOCCNC(=O)COCCOCCNC(=O)CC[C@H](NC(=O)CCCCCCCCCCCCCCCCCCC(=O)O)C(=O)O)C(C)C)C(N)=O) [Peptide 267]
17 | 10.3 | Palmitoyl-[d(γGlu)][AEEA][AEEA]GNH[Trp(7-Me)]AV[Aib]HL[Nle]-NH2 (SMILES CCCCCCCCCCCCCCCC(=O)N[C@H](CCC(=O)NCCOCCOCC(=O)NCCOCCOCC(=O)NCC(=O)N[C@@H](CC(N)=O)C(=O)N[C@@H](Cc1c[nH]cn1)C(=O)N[C@@H](Cc1c[nH]c2c(C)cccc12)C(=O)N[C@@H](C)C(=O)N[C@H](C(=O)NC(C)(C)C(=O)N[C@@H](Cc1c[nH]cn1)C(=O)N[C@@H](CC(C)C)C(=O)N[C@@H](CCCC)C(N)=O)C(C)C)C(=O)O) [Peptide 22]
18 | > 1000 | Palmitoyl-[d(γGlu)][AEEA][AEEA]GEH[Trp(7-Me)][Aib]V[dA][3Pal]L[Nle][Sar]-NH2 (SMILES CCCCCCCCCCCCCCCC(=O)N[C@H](CCC(=O)NCCOCCOCC(=O)NCCOCCOCC(=O)NCC(=O)N[C@@H](CCC(=O)O)C(=O)N[C@@H](Cc1c[nH]cn1)C(=O)N[C@@H](Cc1c[nH]c2c(C)cccc12)C(=O)NC(C)(C)C(=O)N[C@H](C(=O)N[C@H](C)C(=O)N[C@@H](Cc1cccnc1)C(=O)N[C@@H](CC(C)C)C(=O)N[C@@H](CCCC)C(=O)N(C)CC(N)=O)C(C)C)C(=O)O) [Peptide 19]
19 | 10.2 | {C20 diacid}-[γGlu][γGlu][AEEA][AEEA]GQHWAV[ACPC]HL[Nle]-NH2 (reading uncertain) [Peptide 271]
20 | 2.4 | {C20 diacid}-[γGlu][AEEA][AEEA][Hyp]QHWAV[βAla]HL[Nle]-NH2 (SMILES CCCC[C@H](NC(=O)[C@H](CC(C)C)NC(=O)[C@H](Cc1c[nH]cn1)NC(=O)CCNC(=O)[C@@H](NC(=O)[C@H](C)NC(=O)[C@H](Cc1c[nH]c2ccccc12)NC(=O)[C@H](Cc1c[nH]cn1)NC(=O)[C@H](CCC(N)=O)NC(=O)[C@@H]1C[C@@H](O)CN1C(=O)COCCOCCNC(=O)COCCOCCNC(=O)CC[C@H](NC(=O)CCCCCCCCCCCCCCCCCCC(=O)O)C(=O)O)C(C)C)C(N)=O) [Peptide 269]
21 | 3 | Palmitoyl-[d(γGlu)][AEEA][AEEA]GNHWAV[dA][3Pal]L[Nle]-NH2 (SMILES CCCCCCCCCCCCCCCC(=O)N[C@H](CCC(=O)NCCOCCOCC(=O)NCCOCCOCC(=O)NCC(=O)N[C@@H](CC(N)=O)C(=O)N[C@@H](Cc1c[nH]cn1)C(=O)N[C@@H](Cc1c[nH]c2ccccc12)C(=O)N[C@@H](C)C(=O)N[C@H](C(=O)N[C@H](C)C(=O)N[C@@H](Cc1cccnc1)C(=O)N[C@@H](CC(C)C)C(=O)N[C@@H](CCCC)C(N)=O)C(C)C)C(=O)O) [Peptide 17]
